Substitutions are numbered along the chain they refer to.
B1: Anti-NOGO antibody 15C3/3 (mouse monoclonal) (antibody, V domains shown)
VH: QVQLQQSGAELVKPGASVKISCKASGYAFSSYWMNWVKQRPGKGLEWIGQIYPGDGDTNYNGKFKGKATLTADKSSSTAYMQLSSLTSEDSAVYFCAVRFDYWGQGTTLTVSS
VL: DIVMTQAAPSVPVTPGESVSISCRSSKSLLHSNGNTYLYWFLQRPGQSPQLLIYRMSNLASGVPDRFSGSGSGTAFTLRISRVEAEDVGVYYCMQHLEYPLTFGAGTKLELK
notes: Mouse hybridoma antibody; also called Mouse 15C3
B2: Anti-NOGO antibody 2C4/1 (mouse monoclonal) (antibody, V domains shown)
VH: EVQLVESGGGLVKPGGSLKLSCAASGFTFSCYAMSWVRQTPEKRLEWVASISDGGSYTYYPDNVKGRFTISRDNAKNNLYLQMSHLKSEDTAMYYCAKELLFDYWGQGTTLTVSS
VL: DVVMTQTPLSLPVSLGDQASISCRSSQSLVHSNGNTYLHWYLQKPGQSPKLLIYKVSNRFSGVPDRFSGSGSGTDFTLKISRVEAEDLGVYFCSQSTHVPLTFGAGTKLELK
notes: Mouse hybridoma antibody; also called Mouse 2C4
B3: Anti-NOGO antibody 2A10/3 (mouse monoclonal) (antibody, V domains shown)
VH: QVQLQQPGTELVKPGASVKLSCKASGYTFTSYWMHWVKQRPGQGLEWIGNINPSNGGTNYNEKFKSKATLTVDKSSSTAYMQLSSLTSEDSAVYYCELGQGYWGQGTTLTVSS
VL: DIVITQDELSNPVTSGESVSISCRSSKSLLYKDGKTYLNWFLQRPGQSPQLLIYLMSTRASGVSDRFSGSGSGTDFTLEISRVKAEDVGVYYCQQLVEYPLTFGAGTKLELK
notes: Mouse hybridoma antibody; also called Mouse 2A10; 2A10-BR
B4: Humanised anti-NOGO antibody H1L11 (antibody, V domains shown)
VH: QVQLVQSGAEVKKPGASVKVSCKASGYTFTSYWMHWVRQAPGQGLEWMGNINPSNGGTNYNEKFKSRVTMTRDTSTSTVYMELSSLRSEDTAVYYCELGQGYWGQGTTVTVSS
VL: DIVITQSPLSLPVTLGQPASISCRSSKSLLYKDGKTYLNWFQQRPGQSPQLLIYLMSTRASGVPDRFSGGGSGTDFTLKISRVEAEDVGVYYCQQLVEYPLTFGQGTKLEIK
notes: It was expressed transiently in CHO cells; also called H1l L11
B5: Chimeric 2A10 (HcLc) (antibody, human IgG1, kappa, V domains shown)
VH: B3 VH with T108L, L109V
VL: DIVITQDELSNPVTSGESVSISCRSSKSLLYKDGKTYLNWFLQRPGQSPQLLIYLMSTRASGVSDRFSGSGSGTDFTLEISRVKAEDVGVYYCQQLVEYPLTFGAGTKLELKR
notes: Murine 2A10 V regions on human IgG1/k wild type C regions; also called chimaera of 2A10; the chimera

The binders below were run against T1, rat NOGO-A (rat, UniProt Q9JK11 173-975, limits assumed) (assay: SPR, Biacore; similar analysis using rat NOGO-A).
T1 construct: Used in 'a similar analysis' by Biacore
T1 sequence (looked up): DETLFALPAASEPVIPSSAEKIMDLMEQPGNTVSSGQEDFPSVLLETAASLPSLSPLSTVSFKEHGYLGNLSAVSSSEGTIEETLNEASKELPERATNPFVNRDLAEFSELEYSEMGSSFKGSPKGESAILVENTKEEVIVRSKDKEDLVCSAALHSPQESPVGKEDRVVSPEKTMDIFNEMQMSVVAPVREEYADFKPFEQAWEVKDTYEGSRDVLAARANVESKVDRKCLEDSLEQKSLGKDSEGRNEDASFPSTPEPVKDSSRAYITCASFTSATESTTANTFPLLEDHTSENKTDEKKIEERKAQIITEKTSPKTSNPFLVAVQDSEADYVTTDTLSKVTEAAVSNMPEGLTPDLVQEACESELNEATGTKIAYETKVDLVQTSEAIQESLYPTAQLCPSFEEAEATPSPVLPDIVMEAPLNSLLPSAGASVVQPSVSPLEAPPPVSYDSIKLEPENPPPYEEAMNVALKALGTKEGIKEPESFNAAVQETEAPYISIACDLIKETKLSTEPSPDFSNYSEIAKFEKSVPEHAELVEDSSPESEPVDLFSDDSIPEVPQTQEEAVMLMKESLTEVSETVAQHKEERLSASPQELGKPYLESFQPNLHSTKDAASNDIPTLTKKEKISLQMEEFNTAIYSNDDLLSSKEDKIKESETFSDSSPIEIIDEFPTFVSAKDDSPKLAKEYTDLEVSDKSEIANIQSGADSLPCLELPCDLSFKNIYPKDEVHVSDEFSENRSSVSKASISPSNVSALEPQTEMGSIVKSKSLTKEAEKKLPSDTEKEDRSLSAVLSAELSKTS

| Binder | Kd [nM] | koff [s⁻¹] | kon [M⁻¹ s⁻¹] |
| --- | --- | --- | --- |
| B1 | 24.9 | 0.00087 | 46000 |
| B2 | 3.9 | 0.000533 | 162000 |
| B3 | 1 | 0.00101 | 1.26e+06 |

The binders below were run against T2, recombinantly expressed human NOGO-A (hNOGO) (human, UniProt Q9NQC3 586-785, limits assumed) (assay: SPR, Biacore3000; hNOGO amine-coupled to CM5 chip, antibody in solution).
T2 sequence (looked up): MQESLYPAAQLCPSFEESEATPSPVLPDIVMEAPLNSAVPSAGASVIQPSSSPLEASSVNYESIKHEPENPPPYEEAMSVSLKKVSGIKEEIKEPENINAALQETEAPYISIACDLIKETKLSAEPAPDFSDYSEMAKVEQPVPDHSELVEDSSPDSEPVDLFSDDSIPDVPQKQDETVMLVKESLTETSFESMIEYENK
Method: The binding kinetics of the anti-NOGO monoclonal antibody (mAb) to recombinantly expressed human NOGO-A (hNOGO) was analysed using the Biacore3000 biosensor. The methodology was as followed:
hNOGO was immobilised to a CM5 chip by primary amine coupling using the Biacore Wizard program designed for targeted immobilisation levels. The CM5 sensor surface was activated by passing a solution of 50 mM N-hydroxy-succinimide (NHS) and 200 mM N-ethyl-N′-dimethylaminopropyl carbonide (EDC). Then using a 300 nM solution of hNOGO in 5 mM sodium acetate, pH5.0, a range of concentrations between 50-200 resonance units of hNOGO were immobilised. After immobilisation was complete any still activated esters were blocked by an injection of 1 M ethanolamine hydrochloride, pH8.5.
The H1L11 mAb (see example 8) was diluted down in HBS-EP (10 mM HEPES, pH 7.4, 150 mM NaCl, 3 mM EDTA, and 0.005% P-20 surfactant) and binding studies were carried out at concentrations ranging between 0.1-100 nM. For kinetic analysis a flowrate of 60 μl/minute was used, with no mass transfer effects seen. All concentrations were performed in duplicate, in a random order with buffer blanks included. Regeneration was achieved either by the single injection of a 15 μl pulse of 50 mM sodium hydroxide alone or the injection of 15 μl of 100 mM H₃PO₄, followed by a subsequent injection of 15 μl of 50 mM sodium hydroxide. […] All runs were referenced against a blanked sensor surface (one that had been activated and blocked as described earlier but had no addition of ligand). Analysis of binding was carried out using the BIAevaluation kinetic analysis software version 4.1. Biacore analysis of other antibodies of the invention essentially followed the same protocol as described herein.

| Binder | Kd [nM] | koff [s⁻¹] | kon [M⁻¹ s⁻¹] |
| --- | --- | --- | --- |
| B4 | 22.2 | 0.0215 | 1e+06 |
| B1 | 17.5 | 0.000828 | 40700 |
| B2 | 8 | 0.000644 | 80900 |
| B5 | 1.26 | 0.00249 | 2.23e+06 |
| B3 | 0.8 | 0.00184 | 2.9e+06 |

The binders below were run against T3, GST-human NOGO-A56 fusion protein (amino acids 586-785 of human NOGO-A) (human, UniProt Q9NQC3 586-786) (assay: ELISA; GST-human NOGO-A56 coated at 1 µg/ml, anti-human kappa peroxidase detection).
T3 construct: Expressed in E. coli BL21 and purified on glutathione-sepharose; Coated on plates for the ELISAs and dried onto wells for the neurite outgrowth assay; also called GST-NOGO-A56; GST-Nogo5&6
T3 sequence: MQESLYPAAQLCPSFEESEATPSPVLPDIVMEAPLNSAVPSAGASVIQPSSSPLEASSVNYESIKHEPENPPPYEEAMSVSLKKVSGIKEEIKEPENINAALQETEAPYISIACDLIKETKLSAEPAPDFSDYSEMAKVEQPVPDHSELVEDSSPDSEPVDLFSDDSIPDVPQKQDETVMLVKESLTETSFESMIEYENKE
Method: GST-human NOGO-A56 at 1 μg/ml in 50 mM Tris pH9.5 was coated onto Nunc Immunosorp plates (100 μl per well) at 4° C. overnight. Wells were rinsed once with TBS+0.05% tween then incubated with 2% BSA in TBS+0.05% tween to block non-specific binding sites at room temperature for Ihour. Antibodies were diluted in TBS+0.05% tween+2% BSA to 10 μg/ml and ½ dilutions made from this. Antibodies were added to wells in duplicate and incubated at room temperature for 1 hour. Wells were washed three times with TBS+0.05% tween then incubated with anti-human kappa peroxidase conjugate (1:2000) for 1 hour. Washed three times with TBS+0.05% tween and then incubated with 100 μl OPD peroxidase substrate (Sigma) per well for 10 minutes. The colour reaction was stopped by the addition of 25 μl concentrated H₂SO₄. Optical density at 490 nm was measured using a plate reader. Background values read from wells with no antibody were subtracted.
FIGS. 35A to C illustrates the dose-dependent binding of humanised antibody H1L11 in comparison with the chimera (HcLc) to human NOGO-A56 in an ELISA assay.

| Binder | EC50 [µg/mL] |
| --- | --- |
| B4 | 0.118 |
| B5 | 0.022 |

From patent US20070065430A1 (GlaxoSmithKline, published 2007)
